These are literature values, as cited in article PMC6596353.

By Kd is commonly meant the constant that tells how readily two partners part at equilibrium.

This data set deals with ST2 (Homo sapiens) (UniProt Q01638).
UniProt Q01638, sequence (Q01638 19-556): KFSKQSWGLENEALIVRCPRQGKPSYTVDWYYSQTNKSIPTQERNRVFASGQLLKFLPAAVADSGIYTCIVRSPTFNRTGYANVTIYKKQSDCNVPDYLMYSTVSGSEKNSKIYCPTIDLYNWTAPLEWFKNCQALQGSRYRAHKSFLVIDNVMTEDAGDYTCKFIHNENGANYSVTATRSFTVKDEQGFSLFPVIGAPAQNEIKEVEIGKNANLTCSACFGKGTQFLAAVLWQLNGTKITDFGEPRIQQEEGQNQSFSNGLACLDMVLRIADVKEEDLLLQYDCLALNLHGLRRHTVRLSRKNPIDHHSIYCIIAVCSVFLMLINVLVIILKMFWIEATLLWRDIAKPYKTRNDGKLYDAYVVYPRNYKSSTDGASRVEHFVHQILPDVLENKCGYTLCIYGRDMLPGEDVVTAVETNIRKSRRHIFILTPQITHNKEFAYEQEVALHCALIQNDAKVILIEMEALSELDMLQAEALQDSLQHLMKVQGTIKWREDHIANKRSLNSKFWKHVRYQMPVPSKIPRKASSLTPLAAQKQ

IL-33 (from UniProt O95760): the Kd was 0.45 nM.
